This is an account of results in publication PMC13423832.

Sequences and labels used below:
B1: AP-Nogo66-His, wild type (alkaline phosphatase fusion of the NOGO66 domain of reticulon-4) [human] / RTNR-FLAG-His (Nogo66 receptor) on HEK293T cells [not stated] (parent)
chain 1: RIYKGVIQAIQKSDEGHPFRAYLESEVAISEELVQKYSNSALGHVNCTIKELRRLFLVDDLVDSLK
chain 2: CPGACVCYNEPKVTTSCPQQGLQAVPVGIPAASQRIFLHGNRISHVPAASFRACRNLTILWLHSNVLARIDAAAFTGLALLEQLDLSDNAQLRSVDPATFHGLGRLHTLHLDRCGLQELGPGLFRGLAALQYLYLQDNALQALPDDTFRDLGNLTHLFLHGNRISSVPERAFRGLHSLDRLLLHQNRVAHVHPHAFRDLGRLMTLYLFANNLSALPTEALAPLRALQYLRLNDNPWVCDCRARPLWAWLQKFRGSSSEVPCSLPQRLAGRDLKRLAANDLQGCAVATGPYHPIWTGRATDEEPLGLPKCCQPDAADKASVLEPGRPASAGNALKGRVPPGDSPPGNGSGPRHINDSPFGTLPGSAEPPLTAVRPEGSEPPGFPTSGPRRRPGCSRKNRTRSHCRLGQAGSGGGGTGDSEGS

Variants of B1 are the subject of the test. Put plainly: AP (alkaline phosphatase fusion) receptor binding assay on HEK293T cells overexpressing RTNR. Particulars: with RTNR-FLAG-His (Nogo66 receptor) on HEK293T cells; RTNR OE HEK293T cells; n = 3 biological replicates, mean ± s.d.; parent: 0.00087; read off a plot.
As to chain 1 C47W, the response (min^-1 (absorbance/time)) was found to be 0.0015.
